US20120214741A1

Molecular target: native mVDAC1-GFP (mouse) (UniProt Q60932)
Assay: cell-based or functional assay

Sequence of native mVDAC1-GFP (mouse) (Q60932 14-296): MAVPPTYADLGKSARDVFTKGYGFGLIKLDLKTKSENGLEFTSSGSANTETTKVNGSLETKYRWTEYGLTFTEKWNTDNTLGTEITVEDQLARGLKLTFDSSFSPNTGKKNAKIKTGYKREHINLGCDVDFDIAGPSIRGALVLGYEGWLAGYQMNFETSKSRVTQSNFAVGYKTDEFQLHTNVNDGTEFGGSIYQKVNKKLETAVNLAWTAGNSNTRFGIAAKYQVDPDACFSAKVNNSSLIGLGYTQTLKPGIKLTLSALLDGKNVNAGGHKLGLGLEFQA

“recombinant HK-I over-expressed in cells (pcDNA3.1-HisA-HK-I) (enzyme)” showed an apoptotic cell death of cells over-expressing HK-I and mVDAC1-GFP of less than 10%.
